Measurements as given in paper PMC9482650, “Quantitative fragmentomics allow affinity mapping of interactomes” (Nature Communications, 2022).

T1: CARD11, Q9BXL7
T1 sequence (Q9BXL7 662-765, limits assumed, looked up): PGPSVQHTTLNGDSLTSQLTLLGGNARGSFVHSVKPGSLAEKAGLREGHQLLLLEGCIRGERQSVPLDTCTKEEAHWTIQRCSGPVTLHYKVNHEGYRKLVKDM

T2: LNX2_2, Q8N448
T2 sequence (Q8N448 334-432, limits assumed, looked up): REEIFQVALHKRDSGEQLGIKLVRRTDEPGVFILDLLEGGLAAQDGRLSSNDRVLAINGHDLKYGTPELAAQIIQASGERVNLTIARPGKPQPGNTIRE

T3: APBA2_2, Q99767
T3 sequence (Q99767 654-744, limits assumed, looked up): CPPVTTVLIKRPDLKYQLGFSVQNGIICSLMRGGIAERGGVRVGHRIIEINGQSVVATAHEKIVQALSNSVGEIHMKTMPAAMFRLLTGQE

T4: DLG3_3, Q92796
T4 sequence (Q92796 374-475, limits assumed, looked up): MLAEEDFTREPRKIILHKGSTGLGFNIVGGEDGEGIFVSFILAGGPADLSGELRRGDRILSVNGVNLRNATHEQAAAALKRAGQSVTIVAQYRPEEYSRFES

T5: SHANK1, Q9Y566
T5 sequence (Q9Y566 658-767, limits assumed, looked up): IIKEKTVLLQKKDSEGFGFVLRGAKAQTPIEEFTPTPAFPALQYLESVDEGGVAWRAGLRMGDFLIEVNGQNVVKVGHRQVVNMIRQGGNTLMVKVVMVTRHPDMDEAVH

T6: PDZD7_3, Q9H5P4
T6 sequence (Q9H5P4 857-944, limits assumed, looked up): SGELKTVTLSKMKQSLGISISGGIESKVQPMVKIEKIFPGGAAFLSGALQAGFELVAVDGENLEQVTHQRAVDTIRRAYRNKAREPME

T7: TJP3_3, O95049
T7 sequence (O95049 375-456, limits assumed, looked up): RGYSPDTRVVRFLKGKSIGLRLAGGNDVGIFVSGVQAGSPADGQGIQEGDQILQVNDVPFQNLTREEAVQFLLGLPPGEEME

T8: DLG3_2, Q92796
T8 sequence (Q92796 221-321, limits assumed, looked up): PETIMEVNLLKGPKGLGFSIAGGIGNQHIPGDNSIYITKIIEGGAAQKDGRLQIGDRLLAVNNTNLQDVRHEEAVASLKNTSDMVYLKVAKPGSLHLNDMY

T9: DFNB31_2, Q9P202
T9 sequence (Q9P202 274-371, limits assumed, looked up): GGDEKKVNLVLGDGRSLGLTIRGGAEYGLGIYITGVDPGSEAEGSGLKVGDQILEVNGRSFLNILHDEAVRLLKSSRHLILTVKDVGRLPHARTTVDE

T10: MPDZ_12, O75970
T10 sequence (O75970 1857-1958, limits assumed, looked up): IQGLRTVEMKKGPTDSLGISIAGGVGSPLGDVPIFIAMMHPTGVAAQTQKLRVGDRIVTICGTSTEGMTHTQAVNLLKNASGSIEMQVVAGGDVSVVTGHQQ

T11: MPP2, Q14168
T11 sequence (Q14168 180-250, limits assumed, looked up): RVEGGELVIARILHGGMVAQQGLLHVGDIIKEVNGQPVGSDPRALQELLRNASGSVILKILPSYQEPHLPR


Experiments:
Assay in all cases: holdup assay
Parameters in all cases: key: below the threshold = too weak to quantify, mostly under pKd 3.1 to 4
Details in all cases: plain residues with an end cap or a label only (N-terminal biotin on a linker: ado-ado)
Inadl_8, Q8NI35 = target: Inadl_8, Q8NI35
CARD11, Q9BXL7 = target: T1, CARD11, Q9BXL7
LNX2_2, Q8N448 = target: T2, LNX2_2, Q8N448
GRIP2_3, Q9C0E4 = target: GRIP2_3, Q9C0E4
LIMK2, P53671 = target: LIMK2, P53671
MAGI3_2, Q5TCQ9 = target: MAGI3_2, Q5TCQ9
APBA2_2, Q99767 = target: T3, APBA2_2, Q99767
FRMPD2_3, Q68DX3 = target: FRMPD2_3, Q68DX3
DLG3_3, Q92796 = target: T4, DLG3_3, Q92796
GRIP2_4, Q9C0E4 = target: GRIP2_4, Q9C0E4
CASK, O14936 = target: CASK, O14936
SHANK1, Q9Y566 = target: T5, SHANK1, Q9Y566
PDZD7_3, Q9H5P4 = target: T6, PDZD7_3, Q9H5P4
PTPN3, P26045 = target: PTPN3, P26045
GRIP2_6, Q9C0E4 = target: GRIP2_6, Q9C0E4
Inadl_1, Q8NI35 = target: Inadl_1, Q8NI35
TJP1_3, Q07157 = target: TJP1_3, Q07157
TJP3_3, O95049 = target: T7, TJP3_3, O95049
DLG3_2, Q92796 = target: T8, DLG3_2, Q92796
DFNB31_2, Q9P202 = target: T9, DFNB31_2, Q9P202
MAGI2_6, Q86UL8 = target: MAGI2_6, Q86UL8
MPDZ_12, O75970 = target: T10, MPDZ_12, O75970
DLG4_1, P78352 = target: DLG4_1, P78352
MPP2, Q14168 = target: T11, MPP2, Q14168
MAGI2_4, Q86UL8 = target: MAGI2_4, Q86UL8
LDB3, O75112 = target: LDB3, O75112
GRIP2_5, Q9C0E4 = target: GRIP2_5, Q9C0E4
IL16_3, Q14005 = target: IL16_3, Q14005
Chain of IL16_3, Q14005 (Q14005 1107-1207): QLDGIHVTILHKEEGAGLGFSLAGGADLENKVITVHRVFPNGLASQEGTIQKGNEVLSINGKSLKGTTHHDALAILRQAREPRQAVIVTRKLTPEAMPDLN

Chain of GRIP2_6, Q9C0E4 (Q9C0E4 648-740): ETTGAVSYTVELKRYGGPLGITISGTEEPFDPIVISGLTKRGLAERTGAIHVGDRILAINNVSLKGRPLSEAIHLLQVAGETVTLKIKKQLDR
Chain of GRIP2_5, Q9C0E4 (Q9C0E4 544-642): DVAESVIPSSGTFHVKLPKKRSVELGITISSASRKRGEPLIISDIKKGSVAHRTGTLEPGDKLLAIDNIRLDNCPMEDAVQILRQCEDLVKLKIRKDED
Chain of GRIP2_3, Q9C0E4 (Q9C0E4 238-339): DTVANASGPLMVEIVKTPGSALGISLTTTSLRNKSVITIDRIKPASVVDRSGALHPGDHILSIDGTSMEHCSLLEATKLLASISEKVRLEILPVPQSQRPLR
Chain of FRMPD2_3, Q68DX3 (Q68DX3 1073-1166): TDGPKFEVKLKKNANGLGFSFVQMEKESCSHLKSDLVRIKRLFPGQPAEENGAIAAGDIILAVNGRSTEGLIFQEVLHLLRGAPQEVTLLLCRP
Chain of Inadl_8, Q8NI35 (Q8NI35 1425-1530): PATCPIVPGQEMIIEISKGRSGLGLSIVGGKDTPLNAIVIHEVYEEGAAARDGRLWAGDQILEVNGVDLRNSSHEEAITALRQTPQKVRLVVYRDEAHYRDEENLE
Chain of LIMK2, P53671 (P53671 143-248): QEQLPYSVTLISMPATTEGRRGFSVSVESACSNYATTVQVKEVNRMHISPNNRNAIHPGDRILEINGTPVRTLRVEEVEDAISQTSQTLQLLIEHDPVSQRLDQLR
Chain of MAGI2_6, Q86UL8 (Q86UL8 1141-1229): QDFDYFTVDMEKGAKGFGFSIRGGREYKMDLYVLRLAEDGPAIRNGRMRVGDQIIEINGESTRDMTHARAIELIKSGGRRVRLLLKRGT
Chain of DLG4_1, P78352 (P78352 62-152): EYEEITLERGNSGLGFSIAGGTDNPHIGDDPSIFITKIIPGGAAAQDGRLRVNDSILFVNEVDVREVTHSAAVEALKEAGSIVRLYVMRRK
Chain of CASK, O14936 (O14936 487-570): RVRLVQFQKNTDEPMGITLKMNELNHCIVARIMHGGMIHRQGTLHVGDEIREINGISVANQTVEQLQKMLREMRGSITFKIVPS
Chain of LDB3, O75112 (O75112 1-94): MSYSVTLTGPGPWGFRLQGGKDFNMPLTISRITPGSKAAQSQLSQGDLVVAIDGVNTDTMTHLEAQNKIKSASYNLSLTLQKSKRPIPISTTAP
Chain of MAGI3_2, Q5TCQ9 (Q5TCQ9 398-503): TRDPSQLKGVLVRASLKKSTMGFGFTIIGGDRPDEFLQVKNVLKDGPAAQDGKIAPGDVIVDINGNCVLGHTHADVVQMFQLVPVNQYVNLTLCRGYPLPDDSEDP
Chain of TJP1_3, Q07157 (Q07157 416-512): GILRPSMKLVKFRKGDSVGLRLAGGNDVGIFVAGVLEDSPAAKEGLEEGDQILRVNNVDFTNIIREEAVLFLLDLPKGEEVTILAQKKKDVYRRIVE
Chain of Inadl_1, Q8NI35 (Q8NI35 113-229): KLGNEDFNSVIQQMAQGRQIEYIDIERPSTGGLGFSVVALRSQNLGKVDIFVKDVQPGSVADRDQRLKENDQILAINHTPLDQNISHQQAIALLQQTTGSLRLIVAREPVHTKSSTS
Chain of PTPN3, P26045 (P26045 505-587): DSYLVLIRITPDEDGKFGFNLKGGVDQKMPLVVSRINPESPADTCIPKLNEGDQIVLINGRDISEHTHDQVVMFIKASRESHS
Chain of MAGI2_4, Q86UL8 (Q86UL8 772-865): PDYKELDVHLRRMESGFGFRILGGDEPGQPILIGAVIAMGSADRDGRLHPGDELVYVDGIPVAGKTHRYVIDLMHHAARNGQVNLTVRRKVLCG
Chain of GRIP2_4, Q9C0E4 (Q9C0E4 446-548): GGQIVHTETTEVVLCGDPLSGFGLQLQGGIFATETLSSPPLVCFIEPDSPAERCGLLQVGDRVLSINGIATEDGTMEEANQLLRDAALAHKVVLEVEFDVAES

pKd (Inadl_8, Q8NI35)	pKd (CARD11, Q9BXL7)	pKd (LNX2_2, Q8N448)	pKd (GRIP2_3, Q9C0E4)	pKd (LIMK2, P53671)	pKd (MAGI3_2, Q5TCQ9)	pKd (APBA2_2, Q99767)	pKd (FRMPD2_3, Q68DX3)	pKd (DLG3_3, Q92796)	pKd (GRIP2_4, Q9C0E4)	pKd (CASK, O14936)	pKd (SHANK1, Q9Y566)	pKd (PDZD7_3, Q9H5P4)	pKd (PTPN3, P26045)	pKd (GRIP2_6, Q9C0E4)	pKd (Inadl_1, Q8NI35)	pKd (TJP1_3, Q07157)	pKd (TJP3_3, O95049)	pKd (DLG3_2, Q92796)	pKd (DFNB31_2, Q9P202)	Binder	also measured
3.58	below the threshold	below the threshold	below the threshold	below the threshold	4.96	below the threshold	below the threshold	4.11	below the threshold	below the threshold	below the threshold	4.32	4.98	below the threshold	below the threshold	below the threshold	below the threshold	5.27	below the threshold	RRISSLESEV [GRIN2C, Q14957]	pKd (MAGI2_6, Q86UL8): 4.31; pKd (MPDZ_12, O75970): below the threshold; pKd (DLG4_1, P78352): 4.68; pKd (MPP2, Q14168): below the threshold; pKd (MAGI2_4, Q86UL8): 3.95; pKd (LDB3, O75112): below the threshold; pKd (GRIP2_5, Q9C0E4): below the threshold; pKd (IL16_3, Q14005): below the threshold
4.29	below the threshold	4.69	below the threshold	below the threshold	4.79	below the threshold	below the threshold	4.16	below the threshold	below the threshold	below the threshold	4.63	3.89	below the threshold	below the threshold	below the threshold	below the threshold	4.79	below the threshold	PPYRHRNTVV [ERBB4, Q15303]	pKd (MAGI2_6, Q86UL8): below the threshold; pKd (MPDZ_12, O75970): below the threshold; pKd (DLG4_1, P78352): 4.88; pKd (MPP2, Q14168): below the threshold; pKd (MAGI2_4, Q86UL8): 4.43; pKd (LDB3, O75112): below the threshold; pKd (GRIP2_5, Q9C0E4): below the threshold; pKd (IL16_3, Q14005): below the threshold

Continued, binder first:

Binder	pKd (Inadl_8, Q8NI35)	pKd (CARD11, Q9BXL7)	pKd (LNX2_2, Q8N448)	pKd (GRIP2_3, Q9C0E4)	pKd (LIMK2, P53671)	pKd (MAGI3_2, Q5TCQ9)	pKd (APBA2_2, Q99767)	pKd (FRMPD2_3, Q68DX3)	pKd (DLG3_3, Q92796)	pKd (GRIP2_4, Q9C0E4)	pKd (CASK, O14936)	pKd (SHANK1, Q9Y566)	pKd (PDZD7_3, Q9H5P4)	pKd (PTPN3, P26045)	pKd (GRIP2_6, Q9C0E4)	pKd (Inadl_1, Q8NI35)	pKd (TJP1_3, Q07157)	pKd (TJP3_3, O95049)	pKd (DLG3_2, Q92796)	pKd (DFNB31_2, Q9P202)	also measured
CLREWCDAFL [BANF1, O75531]	below the threshold	below the threshold	below the threshold	below the threshold	3.61	below the threshold	below the threshold	below the threshold	below the threshold	below the threshold	3.52	4.14	below the threshold	4.47	below the threshold	below the threshold	below the threshold	3.86	4.15	below the threshold	pKd (MAGI2_6, Q86UL8): 4.36; pKd (MPDZ_12, O75970): 3.67; pKd (DLG4_1, P78352): below the threshold; pKd (MPP2, Q14168): below the threshold; pKd (MAGI2_4, Q86UL8): 3.73; pKd (LDB3, O75112): below the threshold; pKd (GRIP2_5, Q9C0E4): below the threshold; pKd (IL16_3, Q14005): below the threshold
LGRSTPQSEV [DGKH, Q86XP1]	3.98	below the threshold	below the threshold	below the threshold	below the threshold	4.04	below the threshold	below the threshold	below the threshold	below the threshold	below the threshold	below the threshold	4.4	4.12	below the threshold	below the threshold	below the threshold	below the threshold	below the threshold	below the threshold	pKd (MAGI2_6, Q86UL8): below the threshold; pKd (MPDZ_12, O75970): below the threshold; pKd (DLG4_1, P78352): 3.85; pKd (MPP2, Q14168): below the threshold; pKd (MAGI2_4, Q86UL8): 3.52; pKd (LDB3, O75112): below the threshold; pKd (GRIP2_5, Q9C0E4): below the threshold; pKd (IL16_3, Q14005): below the threshold
